Each block holds one compound with its values, some of them ahead of it.
Legend:
[1] = Maximum tolerated dose in folate-deficient rats; format: in vivo, rat
Description: Healthy rats were administered a subcutaneous injection of the indicated dose of aminopterin or EC0746 biweekly for 2 weeks; control animals, no treatment, 100 nmole/kg aminopterin, 50 nmole/kg aminopterin, 500 nmole/kg EC0746, or 2000 nmole/kg EC0746. The animals were weighed daily. See FIG. 6, Panels A and B. A dose of […] of aminopterin in folate deficient rats is above the MTD; therefore, the projected MTD of EC0746 would be <0.5 μmol/kg based solely on ˜20% free drug release shown in the previous Example. However, the MTD of EC0746 is actually 2.0 μmol/kg, which is equivalent to 0.4 μmol/kg, or ˜8× higher than the MTD for free aminopterin. On a molar basis for total aminopterin, the MTD is 40× higher.
Since the toxicity of antifolates can be easily masked by rodent diets enriched with folate, healthy rats on a folate-deficient diet (Harlan) were used to determine the maximum-tolerated-dose levels (MTD) of EC0746, AMT and MTX. The animals were given biweekly injections of EC0746, AMT, and MTX for two weeks. The MTD dose was defined as the dose that had caused at least 13-14% weight loss combined with clinical signs of stress and at least one animal in the >MTD dose group needed to be euthanized. Standard hematologic and blood chemistry parameters were examined as needed along with histopathology. The MTDs of EC0746, MTX and AMT were determined to be 2000, 1000, and 50 nmol/kg, respectively. At above the MTD dose level, the main toxicities of EC0746 were similar to those of AMT and MTX, including manifested gastrointestinal distress (diarrhea), swollen muzzle, immunosuppression (bone marrow, thymus), low white-blood-cell count, low platelet count, and infections. […] Overall, EC0746 was approximately 40-fold less toxic than AMT and 2-fold less toxic than MTX on an equimolar basis in these folate-deficient animals; however, its toxicity profile at above MTD levels was not dissimilar from that of AMT and MTX.

[2] = biological target: folate receptors (FR-β) of CHO cells (Homo sapiens, UniProt P14207); details: 3H-folic acid
[3] = biological target: folate receptors (FR-α) of KB cells (Homo sapiens, UniProt P15328); details: FR-α positive, 3H-folic acid
[4] = Plasma pharmacokinetics after a single subcutaneous dose of EC0746 or aminopterin
Description: Female Lewis rats with rounded tip jugular vein catheters (Harlan) were fed regular rodent diet and used in this study. The animals were given a single subcutaneous dose of EC0746 at 500 nmol/kg. Whole blood samples (300 μl) were collected from the animals at the following time points: 1 min, 10 min, 30 min, 1 h, 2 h, 3 h, 4 h, and 8 h after injection. The blood samples were placed into anti-coagulant tubes containing 1.7 mg/mL of K3-EDTA and 0.35 mg/mL of N-Maleoyl-beta-alanine (0.35 mg/mL). Plasma samples were obtained by centrifugation for 3 min at ˜2,000 g and stored at −80° C. The amount of EC0746 and its released base drugs (EC0470 & aminopterin) were determined by HPLC using the EC0746 injection solution as the standard (see FIG. 4). […] A similar method was used to determine the plasma pharmacokinetics of aminopterin (see FIG. 5).
Thus, the plasma concentrations of EC0746 and two primary metabolites, AMT and AMT hydrazide, were determined by LC/MS/MS after a single subcutaneous EC0746 administration. […] For comparison, the pharmacokinetics of subcutaneously dosed AMT (500 nmol/kg) was also examined (FIG. 15b).

RAW264.7 cells = experiment: XTT cell viability / proliferation of RAW264.7 cells; format: cell-based, murine
Description: (§1) For XTT cell viability and TNF-α inhibition assays, RAW264.7 cells in 96-well plates were treated with vehicle (culture medium) or 10-fold serial dilutions of EC0746 without or with 100-fold excess free folate. After 2 h incubation, the drug-containing media were replaced and the cells were allowed to incubate further for 70 h. Four hours prior to the end of incubation, LPS was added to the treated cells at a final concentration of 100 ng/mL. 100 μL of the culture supernatants were collected for TNF-α analysis using a commercial ELISA kit. See FIG. 2, Panel B. The cell viability was assessed by adding XTT (2,3-bis(2-methoxy-4-nitro-5-sulfo-phenyl)-2H-tetrazolium-5-carboxanilide) to the remaining medium for an additional 4 h following the manufacturer's instructions (Roche Applied Science, Indianapolis, Ind.) See FIG. 2, Panel A. Both results were expressed as % absorbance (minus background) relative to untreated control in triplicates.
(§2) RAW264.7 cells in 96-well plates were treated with vehicle (culture medium) or 10-fold serial dilutions of EC0932 without or with 100-fold excess free folate. […] The cell viability was assessed by adding XTT (2,3-bis(2-methoxy-4-nitro-5-sulfo-phenyl)-2H-tetrazolium-5-carboxanilide) to the remaining medium for an additional 4 h following the manufacturer's instructions (Roche Applied Science, Indianapolis, Ind.). […]

Serum protein binding = format: in vitro ADME
Pharmacokinetic analysis = experiment: Pharmacokinetic analysis
Excerpt: Table printed on a drawing sheet, Fig. 15C
Title: Pharmacokinetic analysis
The patent's description of the figure: FIG. 15. Pharmacokinetics of EC0746 and potential metabolites aminopterin (AMT) and AMT hydrazide (EC0470) in Rats. Panel A. Plasma concentrations (nmol/L) of EC0746, AMT and AMT hydrazide following single subcutaneous EC0746 (500 nmol/kg) administration. Panel B. Plasma concentrations (nmol/L) of AMT following single subcutaneous AMT (500 nmol/kg) administration. c. Pharmacokinetic analysis of the results of (a.) and (b.).
First reader's note: Each column is an analyte detected in rat plasma after dosing the test compound named in row 1; values are means of n=3.

[5] = system: LPS-stimulated TNF-α production in RAW264.7 cells; experiment: LPS-stimulated TNF-α production in RAW264.7 cells (ELISA); format: cell-based, murine; details: 72 h incubations
Description: as §1, §2

DHFR = biological target: T1, DHFR (Mus musculus, UniProt P00375); experiment: DHFR activity in lysate of treated RAW264.7 cells; format: cell-based, murine; details: 10 μM, 2-h pulse, 22-h chase
T1 construct: endogenous in cells; host or cells: RAW264.7
T1 sequence (P00375 1-187): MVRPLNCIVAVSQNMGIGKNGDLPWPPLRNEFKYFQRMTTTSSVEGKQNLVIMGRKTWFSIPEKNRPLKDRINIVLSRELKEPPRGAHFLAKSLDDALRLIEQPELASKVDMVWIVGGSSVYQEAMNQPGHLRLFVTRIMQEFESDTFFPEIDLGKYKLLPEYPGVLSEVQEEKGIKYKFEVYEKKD
Description: RAW264.7 cells were treated with vehicle (medium), EC0746 (100 nM) without or with 100-fold excess free folate, aminopterin (AMT, 100 nM), methotrexate (MTX, 100 nM), or excess free folate alone (10 μM). […] At the end of incubation, the cells were lysed and the DHFR activity in cell lysates was measured using a commercial DHFR assay kit (Sigma-Aldrich, Saint Louis, Mo.).

[6] = rat, in vivo, subcutaneous, folate-deficient rats, biweekly injections for two weeks
[7] = after single s.c. dose of EC0746 500 nmole/kg

Chain of folate receptors (FR-α) of KB cells (P15328 25-234): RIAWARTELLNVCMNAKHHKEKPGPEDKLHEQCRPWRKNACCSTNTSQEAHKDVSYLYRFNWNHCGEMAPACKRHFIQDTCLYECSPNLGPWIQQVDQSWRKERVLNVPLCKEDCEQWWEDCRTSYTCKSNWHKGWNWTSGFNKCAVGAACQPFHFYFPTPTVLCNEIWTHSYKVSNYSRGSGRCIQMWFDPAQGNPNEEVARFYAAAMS
Chain of folate receptors (FR-β) of CHO cells (P14207 17-230, species assumed): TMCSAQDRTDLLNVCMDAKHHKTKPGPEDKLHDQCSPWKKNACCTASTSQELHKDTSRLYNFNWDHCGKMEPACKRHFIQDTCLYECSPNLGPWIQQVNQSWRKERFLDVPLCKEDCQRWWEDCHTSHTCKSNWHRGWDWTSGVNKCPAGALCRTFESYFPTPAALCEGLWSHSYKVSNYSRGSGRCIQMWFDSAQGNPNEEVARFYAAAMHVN

Compound: CN(Cc1cnc2nc(N)nc(N)c2n1)c1ccc(C(=O)N[C@@H](CCC(=O)O)C(=O)O)cc1 [methotrexate, reference compound]
MTD at 2 weeks [1, 6]: 1 µmol/kg | relative folate receptor affinity (folic acid = 1) [2]: 0.005 | relative folate receptor affinity (folic acid = 1) [3]: 0.018

Compound: Nc1nc(N)c2nc(CNc3ccc(C(=O)N[C@@H](CCC(=O)O)C(=O)O)cc3)cnc2n1 [aminopterin, reference compound]
elimination half-life of metabolite released from EC0746 ([4]; female, Lewis, rat, in vivo, sc): ~117 min | delay of plasma peak from the EC0746 Cmax ([4]; rat, in vivo): 30 min | MTD ([1]; folate-deficient rats, biweekly injections for two weeks): 50 nmol/kg

Compound: N=c1[nH]c(N)nc2ncc(CNc3ccc(C(=O)N[C@@H](CCC(=O)NNC(=O)OCCSSC[C@H](NC(=O)[C@H](CCC(=O)NC[C@H](O)[C@@H](O)[C@H](O)[C@H](O)CO)NC(=O)[C@H](CCC(=O)O)NC(=O)[C@H](CCC(=O)NC[C@H](O)[C@@H](O)[C@H](O)[C@H](O)CO)NC(=O)[C@H](CCC(=O)O)NC(=O)[C@H](CCC(=O)NC[C@H](O)[C@@H](O)[C@H](O)[C@H](O)CO)NC(=O)CC[C@H](NC(=O)c4ccc(NCc5cnc6nc(N)[nH]c(=O)c6n5)cc4)C(=O)O)C(=O)O)C(=O)O)cc3)nc12 [EC0746]
EC50 (RAW264.7 cells; 2 hour treatment followed by 72 hours in treatment-free medium): 330 pM | Area Under Curve for free drug [4, 7]: 7.3 nmol·min/mL | Cmax for free drug (aminopterin+aminopterin hydrazide) [4, 7]: 34 nM | Cmax for free drug as share of the total [4, 7]: 9.6% | time at which Cmax for free drug (aminopterin+aminopterin hydrazide) is reached [4, 7]: 60 min | half-life ([4]; female, Lewis, rat, in vivo, sc, 500 nmol/kg): ~35 min | Cmax ([4]; female, Lewis, rat, in vivo, sc, 500 nmole/kg): 321 nM | bioavailability after subcutaneous administration ([4]; rats, s.c.): bioavailable | Area Under Curve for EC0746 ([4]; single s.c. dose of EC0746 500 nmole/kg): 32.5 nmol·min/mL | fraction unbound (Serum protein binding): ~0.54 | fold less toxic than AMT on an equimolar basis ([1]; folate-deficient animals): approximately 40 fold | fold less toxic than MTX on an equimolar basis ([1]; folate-deficient animals): ~2 fold | MTD (free drug equivalent) fold higher than the MTD for free aminopterin ([1]; rat, in vivo): ~8 × | MTD fold higher than aminopterin on a molar basis for total aminopterin ([1]; rat, in vivo): 40 × | MTD at 2 weeks ([1]; rat, in vivo, sc, s.c. biweekly for 2 weeks): 2 µmol/kg | MTD at 2 weeks [1, 6]: 2 µmol/kg | gastrointestinal-associated toxicities at MTD dose ([1]; rats, at MTD): less gastrointestinal-associated toxicities than AMT and MTX | relative folate receptor affinity (folic acid = 1) [2]: 0.270 | relative folate receptor affinity (folic acid = 1) [3]: 0.50

Compound: Nc1nc(N)c2nc(CNc3ccc(C(=O)N[C@@H](CCC(=O)O)C(=O)O)cc3)cnc2n1 [AMT | AMT]
AUC0-t | (Pharmacokinetic analysis): 61.3 nmol/min/mL | CL or CL_F | (Pharmacokinetic analysis): 1.7 mL/min | Cmax | (Pharmacokinetic analysis): 601 nM | T1/2(elimination) | min (Pharmacokinetic analysis): 140 min | Tmax | min (Pharmacokinetic analysis): 30 min | Vz or Vz_F | mL (Pharmacokinetic analysis): 328 mL

Compound: NNC(=O)CC[C@H](NC(=O)c1ccc(NCc2cnc3nc(N)nc(N)c3n2)cc1)C(=O)O [EC0470, aminopterin gamma-hydrazide, reference compound]
cell proliferation in the XTT assay, potency of potential EC0746 metabolites (RAW264.7 cells; 72 h incubations): equally potent | LPS-stimulated TNF-α production, potency of potential EC0746 metabolites [5]: equally potent | Tmax of released base drug ([4]; released from EC0746 after single s.c. dose 500 nmol/kg): ~60 min | delay of plasma peak from the EC0746 Cmax ([4]; released from EC0746 in EC0746-dosed rats): 30 min

effect of folic acid alone on DHFR activity (DHFR): did not have any impact
Compound: Nc1nc2ncc(CNc3ccc(C(=O)N[C@@H](CCC(=O)O)C(=O)O)cc3)nc2c(=O)[nH]1 [folic acid]
